B1: vapB46 promoter oligo (dsDNA)
DNA 1: TCCTCCCAGCTCAGCGCCAACCAACCGAGGAACAACGCGCCGACTTTTTCAG
DNA 2: CTGAAAAAGTCGGCGCGTTGTTCCTCGGTTGGTTGGCGCTGAGCTGGGAGGA
B2: vapB27 promoter oligo (dsDNA)
DNA 1: CGGTGAGTCGACTTCCGCACCTGAGTGGGAAGCCATTGGTATCGTATTCCCATGA
DNA 2: TCATGGGAATACGATACCAATGGCTTCCCACTCAGGTGCGGAAGTCGACTCACCG

Columns and labels:
VapB46;VapC46 = VapB46;VapC46 (Mycobacterium tuberculosis …, UniProt P9WF13;O50411 1-102;1-130, |); experiment: EMSA
VapB27;VapC27 = VapB27;VapC27 (Mycobacterium tuberculosis …, UniProt O07779;P9WF83 1-78;1-137, |); experiment: EMSA
Sequence of VapB27;VapC27 (O07779 whole entry, chain 1 of 2): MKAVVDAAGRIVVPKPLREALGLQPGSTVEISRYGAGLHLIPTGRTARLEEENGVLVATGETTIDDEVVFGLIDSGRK
Sequence of VapB27;VapC27 (P9WF83 whole entry, chain 2 of 2): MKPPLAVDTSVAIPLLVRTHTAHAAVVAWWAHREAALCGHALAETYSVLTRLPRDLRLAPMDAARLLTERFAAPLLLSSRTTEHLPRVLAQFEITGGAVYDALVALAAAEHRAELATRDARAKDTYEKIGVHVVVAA

Sequence of VapB46;VapC46 (P9WF13 whole entry, chain 1 of 2): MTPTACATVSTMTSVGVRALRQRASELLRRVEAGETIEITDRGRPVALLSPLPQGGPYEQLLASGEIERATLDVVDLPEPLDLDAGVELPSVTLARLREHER
Sequence of VapB46;VapC46 (O50411 whole entry, chain 2 of 2): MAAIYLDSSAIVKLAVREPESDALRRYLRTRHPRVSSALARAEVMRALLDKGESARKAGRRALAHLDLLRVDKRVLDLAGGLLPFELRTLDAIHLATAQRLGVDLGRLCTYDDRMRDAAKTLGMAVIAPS

Row | Binder | binding result (VapB46;VapC46) | binding result (VapB27;VapC27)
1 | B1 | binds | –
2 | B2 | – | binds
